Assay results reported in US20240327509A1, “HUMAN CXCLI6 ANTIBODIES AND THE USE THEREOF” (CELLUS,INC., priority 2021, published 2024).
Residue numbers refer to the chain shown, from its start.

T1: Recombinant human CXCL16 (rhCXCL16) protein (Homo sapiens, UniProt Q9H2A7)
T1 sequence (Q9H2A7 30-118): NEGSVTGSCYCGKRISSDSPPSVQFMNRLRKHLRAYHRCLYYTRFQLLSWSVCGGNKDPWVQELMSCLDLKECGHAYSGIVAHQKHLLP

T2: Recombinant human CXCL16 (rhCXCL16) protein (human, UniProt Q9H2A7 30-118, limits assumed)
T2 construct: Bought recombinant protein (976-CX, R&D systems); also called CXCL16 antigen; 976-CX (R&D systems)
T2 sequence: T1 sequence (Q9H2A7 30-118)

T3: Recombinant mouse CXCL16 antigen (mouse, UniProt Q8BSU2 27-114, limits assumed)
T3 construct: Bought recombinant protein (503-CX, R&D systems); also called 503-CX (R&D systems)
T3 sequence: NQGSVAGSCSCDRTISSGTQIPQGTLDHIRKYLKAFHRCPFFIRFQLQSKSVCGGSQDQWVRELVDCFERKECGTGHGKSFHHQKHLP

B1: HC0LC0: chimeric antibody that binds to human CXCL16; rat variable regions (CDRs SEQ ID NOs 12-17), heavy SEQ ID NO: 32, light SEQ ID NO: 34 (antibody)
heavy: ACCMGWTLVFLFLLSVTAGVHSAVQLVESGGGLVQPKESLKISCAASGFTFSNAVMNWVRQAPGKGLEWVARIRTKPNNYATFYADSVKGRFTFSRDDSKSMVYLQMDNLKTEDTAMYYCTAWTTEGIYWGQGTLVTVSSAETTAPSVYPLAPGTALKSNSMVTLGCLVKGYFPEPVTVTWNSGALSSGVHTFPAVLQSGLYTLTSSVTVPSSTWSSQAVTCNVAHPASSTKVDKKIVPRECNPCGCTGSEVSSVFIFPPKTKDVLTITLTPKVTCVVVDISQNDPEVRFSWFIDDVEVHTAQTHAPEKQSNSTLRSVSELPIVHRDWLNGKTFKCKVNSGAFPAPIEKSISKPEGTPRGPQVYTMAPPKEEMTQSQVSITCMVKGFYPPDIYTEWKMNGQPQENYKNTPPTMDTDGSYFLYSKLNVKKETWQQGNTFTCSVLHEGLHNHHTEKSLSHSPGK
light: ACCMVSSAQFLGLLLLCFQGTRCDIVMTQSPSSLAVSAGETVTINCKSSQSLLYSGNQKNYLAWYQQKPGQSPKLLIYWASTRQSGVPDRFIGSGSGTDFTLTISSVQAEDLAIYYCQQYYDTPWTFGGGTKLELKRADAAPTVSIFPPSTEQLATGGASVVCLMNNFYPRDISVKWKIDGTERRDGVLDSVTDQDSKDSTYSMSSTLSLTKADYESHNLYTCEVVHKTSSSPVVKSFNRNEC
B2: HC5LC5 (antibody, human IgG1, kappa, V domains shown)
VH: EVQLVESGGGLVQPGGSLKLSCAASGFTFSNAVMNWVRQASGKGLEWVARIRTKPNNYATFYADSVKGRFTFSRDDSKNTAYLQMNSLKTEDTAMYYCTAWTTEGIYWGQGTLVTVSS
VL: DIVMTQSPSSLAVSAGERATINCKSSQSLLYSGNQKNYLAWYQQKPGQSPKLLIYWASTRQSGVPDRFIGSGSGTDFTLTISSLQAEDVAIYYCQQYYDTPWTFGGGTKLELKR
notes: Humanized; human IgG1 / kappa constant domains; also called HCSLCS; humanized CXCL16 antibody HC5LC5
B3: HC5LC2 (antibody, human IgG1, kappa, V domains shown)
VH: B2 VH
VL: B2 VL with A15L, R18T, S49P, I69T, S73A, L84V, V89L, L110V, L112I
notes: Humanized; human IgG1 / kappa constant domains; also called HCSLC2; humanized CXCL16 antibody HC5LC2

Key:
[1] = test system: 4T1, a breast cancer cell line; conditions: 4T1 in C3H mice; FIG. 7
Protocol: 2×10^6 pieces of 4T1, a breast cancer cell line, were injected into the back of C3H mice, and anticancer drugs were administered to each experimental group from the 5th day when the tumor was formed.

[2] = test system: anaplastic thyroid cancer cell line FRO; test: thyroid cancer mouse model, combination with lenvatinib; type: in vivo, nu/nu mice
From the text: We measured tumor size with a caliper and calculated tumor volume using the following equation: volume=½× a×b2, where a=long tumor diameter and b=short tumor diameter.

[3] = target: T1, Recombinant human CXCL16 (rhCXCL16) protein; test: bio-light interferometry (ForteBio) binding analysis; conditions: antibody captured on biosensor, rhCXCL16 100 nM, 25° C.; ND = signal was not detectable
Protocol: (§1) The binding characteristics of 25 CXCL16 antibodies were analyzed using the bio-light interferometry (ForteBio). All antibodies were diluted in freshly prepared running buffer. Antibodies were immobilized onto the surface of a series of biosensors using the capture methods at 0.3 μg/mL. Recombinant human CXCL16 (rhCXCL16) protein (100 nM) was passed over the surface to generate a binding response for 10 minutes. Binding data for the antibody and antigen interactions were collected at 25° C. on the biosensors. Then, the running buffer was passed for 10 minutes to dissociate them. The association constant (ka) and the dissociation constant (ka) were observed, and the equilibrium binding constant (KD) was calculated. […] R2: The value indicating how well the fit and experimental data correlate; X^2: The measure of error between the experimental data and fitted line.

[4] = target: T2, Recombinant human CXCL16 (rhCXCL16) …; test: BLI (ForteBio), antibody captured on biosensor, rhCXCL16 in solution, 25 C
Protocol: as §1, with “(kₐ)” for “(ka)”, “X²:” for “X^2:”

[5] = target: T2, Recombinant human CXCL16 (rhCXCL16) …; test: as above; remark: listed apart in the source
[6] = target: T3, Recombinant mouse CXCL16 antigen; test: ELISA, recombinant mouse CXCL16 immobilized on the plate, HRP-labeled anti-human IgG detection, OD 450 nm
Protocol: To evaluate the cross-reactivity with mouse CXCL16 antigen, the same ELISA experiment was performed with recombinant mouse CXCL16 antigen (503-CX, R&D systems). The mouse CXCL16 antigen was immobilized onto 96-well plates by incubation for 2 hours at room temperature. Non-specific binding sites were blocked by incubating with 1% BSA in PBS overnight at 4° C. After coating, the plates were washed with PBS. Humanized CXCL16 antibodies at various concentration (0.00 1˜10 nM) were incubated with the immobilized antigen for 2 hours at room temperature. After binding, the plates were washed, incubated with HRP-labeled anti-human IgG antibody (W4031, Promega, USA) for 0.5 hours, and developed using the substrate solution (DY008B, R&D systems). The binding affinity of humanized antibodies was similar to that of IgG antibody.

Molecule | Kd [4] [nM] | koff [4] [s⁻¹] | kon [4] [M⁻¹ s⁻¹] | Res@3.7 nM [5] | binding result [6] | other results
CC(=O)O[C@H]1C(=O)[C@@]2(C)[C@H]([C@H](OC(=O)c3ccccc3)[C@]3(O)C[C@H](OC(=O)[C@H](O)[C@@H](NC(=O)c4ccccc4)c4ccccc4)C(C)=C1C3(C)C)[C@]1(OC(C)=O)CO[C@@H]1C[C@@H]2O [Taxol, paclitaxel] | – | – | – | – | – | therapeutic effect (tumor growth) [1]: did not have a clear therapeutic effect
COc1cc2nccc(Oc3ccc(NC(=O)NC4CC4)c(Cl)c3)c2cc1C(N)=O [lenvatinib] | – | – | – | – | – | therapeutic effect (tumor growth) ([2]; after phase 1, rate the same as that of the control group): therapeutic effect of lenvatinib was lowered; therapeutic effect (tumor growth) ([2]; phase 1 (up to day 22), lenvatinib orally 30 mg/kg/day five times a week): therapeutic effect of lenvatinib was maintained
B1 | – | – | – | – | – | kd [3]: <1e-07 s⁻¹
B2 | < 0.001 | < 1e-07 | 18200 | 0.231 | no binding (tested: 1500 ng/mL) | –
B3 | 2.5 | 6.07e-05 | 24300 | 0.152 | no binding (tested: 1500 ng/mL) | –
